Measured values as given in the supplement of paper PMC11780869.

Test system: Bacillus subtilis
Assay: cleaved RNA product abundance (RNA/gDNA barcode ratio) relative to median wild-type variant (ratio to wild type); higher = more accumulation of the downstream cleavage product
Description: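 MPRA in B. subtilis. Mutagenized RNase Y cleavage-site regions (9% mutation rate) were inserted into a barcoded reporter mRNA (truncated aprE or tetM). Cells were grown in LB at 37°C to OD600 0.3. The cleaved RNA isoform was gel-purified and its barcodes counted; the RNA:gDNA barcode ratio was normalised to the median wild-type variant, and the median over barcodes is reported per variant. The printed sequence is the variable window only; the reporter flanks are not printed.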

[1] = experiment (reporter, strain, medium): exp 4a: truncated aprE reporter, strain BJT201 with 2% xylose (RNase J1 expressed), cleavage site: cggR-gapA (positions -7 to +36 mutated)
[2] = experiment (reporter, strain, medium): exp 8a: truncated aprE reporter, strain BJT201 with 2% xylose (RNase J1 expressed), cleavage site: glnRA (positions -5 to +31 mutated)
[3] = experiment (reporter, strain, medium): exp 2b: truncated aprE reporter, strain BJT200, cleavage site: cggR-gapA (positions -7 to +36 mutated)

Sequence | cleaved RNA product abundance [1] | cleaved RNA product abundance [2] | also measured
ACAGACGAAGGAGCCGCAAAAAAGTTAGTAAGGGATGAATAATCCCTCAATATAAATATCTCTCACTTATTTAAA | 0.374 |  | 
ACAGACGAAGGAGCCGCAAAGAAGTTATTAAGGGATCAATAATCCCTCAATATAAATCTCTCTCACTTATTTAAA | 0.706 |  | 
CGACATGTCCCGCTTCTTTCATTAATCCGTTAGCCACTATTTTGCTATATACATTTACCTTTTAAGAGGAGGAAT |  | 0.358 | 
CGACATGTCCCGCTTCTTTCATTAATCCGTTAGCAACTGTTTTGCTACATACATTTACCTTTTAAGAGGAGGAAT |  | 0.368 | 
ACAGACGAAGGAGCCGCAAAGAAGTTATTAAGGGAAGAATATTCCCTCAATATAAATATCTCTCACTTATTTAAA | 0.603 |  | cleaved RNA product abundance [3]: 0.797
ACAGACGAAGGAGCCGCAAACAAGTTATTAAGGGATGAATAATCCCACAATATAAATATCTCTCACTTATTTAAA | 0.255 |  | cleaved RNA product abundance [3]: 0.109
CGACATGTCCCGCTTCTTTCATTAATCCGTTAGAAACTGTTTTGCTATATACATTTACATTTTAAGAGGAGGAAT |  | 0.34 | 
CGACATGTCCCGCTTCTTTCATTAATCCGTTAACAACAGTTTTGCTATATACATTTACCTTTTAAGAGGAGGAAT |  | 0.183 | 
ACAGACGAAGGAGCCGCAAAGAAGTTATTAAGGGAAAAATAATCCCTCAATATAAATATCTCTCACTTATTTAAA | 0.771 |  | 
ACAGACGAAGGAGCCGCAAAGCAGTTATTAAGGGATGAATAATCCCTCAACATAAATATCTCTCACTTATTTAAA | 0.118 |  | 
CGACATGTCCCGCTTCTTTCATTACTCCGTTAGCAAGTGTTTTGCTATATACATTTACCTTTTAAGAGGAGGAAT |  | 0.557 | 
ACAGACGAAGGAGCCGCAACGAAGTTATTAAGGGATGAATAATCCTTCAATATAAATATCTCTCACTTATTTAAA | 0.448 |  | 
ACAGACGAAGGAGCCGCCAAGAAGTTATTAAGGGATGAATAAACCCTCAATATAAATATCTCTCACTTATTTAAA | 0.471 |  | 
ACAGACGAAGGAGCCGCAAAAAAGTTAATAAGGGATGAATAATCCCTCAATATAAATATCTCTCACTTATTTAAA | 0.365 |  | cleaved RNA product abundance [3]: 0.335
CGACATGTCCCGCTTCTTTCATTAATCCGTTTACAACTGTTTTGCTATATACATTTACCTTTTAAGAGGAGGAAT |  | 0.276 | 
ACAGACGAAGGAGCCGCAAAGAAGTTATAAAGGGATGAATAATCCCTCAATATAAATATATCTCACTTATTTAAA | 0.419 |  | 
ACAGACGAAGGAGCCGCAAAGACGTTATTAAGGGATGAATAATCCCTCGATATAAATATCTCTCACTTATTTAAA | 0.386 |  | 
CGACATGTCCCGCTTCTTTCATTAATCCGTTAGCAACTGTTTTGCTATATACATATACTTTTTAAGAGGAGGAAT |  | 0.975 | 
ACAGACGAAGGAGCCGCAAAGAAGTTATTAAGGGGTGAATACTCCCTCAATATAAATATCTCTCACTTATTTAAA | 0.256 |  | 
ACAGACGAAGGAGCCGCAAAGAAGTTATTAAGGGATGAAAAATTCCTCAATATAAATATCTCTCACTTATTTAAA | 0.327 |  | cleaved RNA product abundance [3]: 0.274
CGACATGTCCCGCTTCTTTCATTAGTCAGTTAGCAACTGTTTTGCTATATACATTTACCTTTTAAGAGGAGGAAT |  | 0.249 | 
ACAGACGAAGGAGCCGCAAAGAAGTTATTAAGGGAAGAATAATCCCTCAATATAAATATCTCTCACTTATTTAAA | 0.633 |  | cleaved RNA product abundance [3]: 0.485; cleaved RNA product abundance (experiment (reporter, strain, medium): exp 6: tetM reporter, strain 168, cleavage site: cggR-gapA (positions -7 to +36 mutated)): 0.691
ACAGACGAAGGAGCCGCAAAGAAGTTATTAAGGGATGAATTATCCATCAATATAAATATCTCTCACTTATTTAAA | 0.144 |  | cleaved RNA product abundance [3]: 0.163
ACAGACGAAGGAGCCGCAAAGAAGTTAATAAGGGATGAATAATCCCTAAATATAAATATCTCTCACTTATTTAAA | 0.306 |  | 
ACAGACGAAGGAGCCGCAAAGAAGTTATTAAGGGAGGAATAATCCATCAATATAAATATCTCTCACTTATTTAAA | 0.209 |  | 
ACAGACGAAGGAGCCGCAAAGAAGTTATTAAGGGATGAATAATCCATCAATATAAATCTCTCTCACTTATTTAAA | 0.17 |  | 
CGACATGTCCCGCTTCTTTCATTAATCCTATAGCAACTGTTTTGCTATATACATTTACCTTTTAAGAGGAGGAAT |  | 0.458 | 
ACAGACGAAGGAGCCGCAAAGAAGTTATTAAAGGATGAAGAATCCCTCAATATAAATATCTCTCACTTATTTAAA | 0.232 |  | 
ACAGACGAAGGAGCCGCAGAGAAGTTATTAAGAGATGAATAATCCCTCAATATAAATATCTCTCACTTATTTAAA | 0.118 |  | cleaved RNA product abundance [3]: 0.0994
ACAGACGAAGGAGCCGCAAAGAAGTTCTGAAGGGATGAATAATCCCTCAATATAAATATCTCTCACTTATTTAAA |  |  | cleaved RNA product abundance [3]: 0.193
